Experimental findings from the supplement of paper PMC12764529 are described below.

A short description of series [1]: folding stability dG unfold (combined trypsin and chymotrypsin); higher = more stable. In a few lines:
(§1)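 Bayesian fitting of sequencing counts gave K50 for each design. Unfolding free energy followed by setting this against a sequence-predicted unfolded-state K50 and a shared folded-state K50, either per protease or with trypsin and chymotrypsin combined. The designs, under 80 residues and lacking cysteine, were digested in a PA-tagged cDNA display format at 11 threefold-diluted protease concentrations and without protease, and only those with AlphaFold2 dimer inter-PAE above 15 were kept.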

Series [2] is described as follows: folding stability dG unfold from chymotrypsin proteolysis; higher = more stable. In a few lines: as §1
A short description of series [3]: folding stability dG unfold from trypsin proteolysis; higher = more stable. The method in brief:
as §1

± gives the half width of the 95% confidence interval.

For the sequence “SAGGMVTITTEKMTEEEAEELKKKLPPNTVLLPNPANDTIVPILVPPDPAVLQAVKDALEKELAEAKSAGGS [r16_311_JUSTAS]”, the figures for the “folding stability dG unfold” value in series [1], in series [2] and in series [3] were 1.18 ± 0.15 kcal/mol, 0.662 ± 0.24 kcal/mol and 1.49 ± 0.13 kcal/mol, respectively.
The corresponding values for “SAGGMVTSTVSVDPSVPKTTTTETFSDGTRVVTTTTELPSGLTVTTTTVTVPPDGSTTATSTTTTIAPSAGG [r13_230_JUSTAS]” are 1.27 ± 0.11 kcal/mol, 0.958 ± 0.044 kcal/mol and 1.62 ± 0.064 kcal/mol.
The corresponding values for “SAGGMVTVDTDPTEDGTLRVTVTVPRPDGPALTLTLDFPPEAGSLAVVLARADEALAAEMARRGLALSAGGS [r8_464_JUSTAS]” are 1.44 ± 0.22 kcal/mol, 1.95 ± 0.14 kcal/mol and -0.0072 ± 0.27 kcal/mol.
On to “SAGGMVVTEEGDKTYITVRVPAPPGLPPEAVAAEIRERYGLSDLEVLEVEALPDGTLVVRLRDSTPASAGGS [r16_234_JUSTAS]”, for which the “folding stability dG unfold” value in series [1] came out at 2.55 ± 0.044 kcal/mol; in series [2] it was 2.554 ± 0.021 kcal/mol; in series [3], 2.55 ± 0.074 kcal/mol.
The like results for “SAGGMVVVAVEVDPVTKTATIVYAAPVPNLGGYVPIPAAAVAKRLTEELGLPDVKEVTVAQAAGDVPISAGG [r13_327_TrMRF]” were, in that order, 0.578 ± 0.12 kcal/mol, 0.607 ± 0.1 kcal/mol and 0.428 ± 0.057 kcal/mol.
Regarding “SAGGMYLYKINIKNENEEFFLPILAPEEDEEKVEELAKEISIKLGVKPENIKIEKIEKILGPNGIPVSAGGS [r16_650_TrMRF]”, the “folding stability dG unfold” value in series [1] turned out to be 1.99 ± 0.1 kcal/mol; in series [2], 2.08 ± 0.037 kcal/mol; in series [3], 1.74 ± 0.058 kcal/mol.
Regarding “SAGGNIKIEVYRSPDYYMIRIKLDGKPYEIPIDPGNTEEEAAEQALDNLQEKFPDKPIKIKDVEIYPYSAGG [r13_884_TrROS]”, the “folding stability dG unfold” value in series [1] was determined as 0.566 ± 0.28 kcal/mol; in series [2] it was 0.513 ± 0.42 kcal/mol; in series [3], 0.473 ± 0.22 kcal/mol.
The like results for “SAGGNIKVRREPRPNGQYRVKITIPDPDGKPIEIEYRMPPGMDSPEQAQKEAIEVVKEFAKKHNIKISAGGS [r8_464_TrROS]” were, in that order, 0.605 ± 0.21 kcal/mol, 0.733 ± 0.17 kcal/mol and 0.423 ± 0.17 kcal/mol.
The corresponding values for “SAGGNKGKTIQINFMIDPEDPEMMIEKISKWLQAKGFKIESIEPRPVGNRWMYSATFRVPNGREITIWSAGG [r13_421_TrROS]” are 1.77 ± 0.17 kcal/mol, 1.61 ± 0.19 kcal/mol and 1.76 ± 0.039 kcal/mol.
The corresponding values for “SAGGNLDKEFVRDIIENFGFTRIEVEEHPNRKVVTFRFENMDVVIRPDGQIEIENPGGEPVFQIEVPSAGGS [r8_147_TrROS]” are 1.53 ± 0.21 kcal/mol, 1.63 ± 0.11 kcal/mol and 1.31 ± 0.031 kcal/mol.
Regarding “SAGGNNIYVHIQFKPKEQKMERTPDNGKWDMEYKWEIDITIYYPKGMSPEQAERLVNELREIFPGIKSAGGS [r8_306_TrROS]”, the “folding stability dG unfold” value is 1.99 ± 0.12 kcal/mol in series [1], 2.54 ± 0.047 kcal/mol in series [2] and 1.12 ± 0.072 kcal/mol in series [3].
The corresponding values for “SAGGNPSASPVVTETELPDGSRVTTTTYPSGTTTRTVTDLVTGKKTLVTTTTTPGTGATTTTTTPVPPSAGG [r13_822_JUSTAS]” are 1.08 ± 0.03 kcal/mol, 1.51 ± 0.022 kcal/mol and 0.151 ± 0.019 kcal/mol.
As for “SAGGNSMTILFIFPENGWIIRITIKFPDGNGKIDDIDIEREPVPNGQVKYTIRMPDGMEISVEIIPLDSAGG [r13_515_TrROS]”, the “folding stability dG unfold” value in series [1] came to 5.52 ± 0.33 kcal/mol; in series [2], 5.57 ± 0.15 kcal/mol; in series [3], 3.99 ± 0.1 kcal/mol.
The corresponding values for “SAGGNWIWRIKFPGRSIHFNWEQGNIEIWPPDGEEKTIPLPPGEPLEEFADEFAEKNGFDKVEIEPVPSAGG [r13_852_TrROS]” are 1.95 ± 0.21 kcal/mol, 1.94 ± 0.24 kcal/mol and 2.08 ± 0.11 kcal/mol.
The corresponding values for “SAGGNWRIVEIPIKFPPGQDLTTIAKEIAKELLPPGEDVSINVEQRPNYMRIYIFYPEDGKPLWEIEISAGG [r13_724_TrROS]” are 2.58 ± 0.075 kcal/mol, 2.81 ± 0.048 kcal/mol and 1.95 ± 0.054 kcal/mol.
Consider “SAGGNWTIEVEIEENPDGPYRITIRYRAPNGEEHKVTMWFDPDNGTFPIKLPGPLPPDQIEDIEIWPSAGGS [r16_95_TrROS]”, for which the “folding stability dG unfold” value in series [1] worked out at 4.91 ± 0.19 kcal/mol; in series [2], 5.04 ± 0.24 kcal/mol; in series [3], 3.41 ± 0.36 kcal/mol.
The corresponding values for “SAGGPDIKIKWKIEVNPDNGMIWLTMEIEVPNPNGDFYKVRADIYIPIVNPDDGKFPIFIMLEVEPVPSAGG [r13_715_TrROS]” are 4.76 ± 0.2 kcal/mol, 4.74 ± 0.25 kcal/mol and 3.36 ± 0.3 kcal/mol.
The corresponding values for “SAGGPDWKTVEVEIQVKDPEDRPEAIEEAEEWAQELAENNPGYKIKGVDVEIWPHNGWYQIRIPITVESAGG [r13_305_TrROS]” are 0.79 ± 0.19 kcal/mol, 1.01 ± 0.21 kcal/mol and 0.733 ± 0.1 kcal/mol.
In the case of “SAGGPDWQTIRITFWFDSPEDAEEEVRNIARTMGLPPEGIKVEITDFEPREVNGKNYYMVEAEITIPSAGGS [r16_240_TrROS]”, the “folding stability dG unfold” value was determined as 3.93 ± 0.062 kcal/mol in series [1], 4.274 ± 0.035 kcal/mol in series [2] and 2.95 ± 0.044 kcal/mol in series [3].
The like results for “SAGGPEELELTLSIDYPDLTPEQAAEEARRLLEGLGFEVKEIPVTVEPGPGKVTVRARVTVLPPEERSAGGS [r16_287_TrMRF]” were, in that order, 1.06 ± 0.17 kcal/mol, 1.21 ± 0.05 kcal/mol and 0.859 ± 0.12 kcal/mol.
The corresponding values for “SAGGPFDDFEPLGTIPFKVNGMEIEIQIWRMKNPGHYMVDIRNPGFGIPVMYWVPPGDIEEILDLIRSAGGS [r8_469_TrROS]” are 2.7 ± 0.14 kcal/mol, 3.1 ± 0.059 kcal/mol and 2.22 ± 0.078 kcal/mol.
The corresponding values for “SAGGPFRVRISDEVIKELKKQGLKPGKKSVKITMQYPNGWVFRGTIKIPPANPKIPLKAEPVERLDDSAGGS [r16_497_TrROS]” are 0.482 ± 0.11 kcal/mol, 0.386 ± 0.17 kcal/mol and 0.429 ± 0.074 kcal/mol.
Take “SAGGPGWVTVEFWIPIEPDPNQTRDDVKEKAEEIVHEMAEYHPQFGITNVKVDVDPEEGWVKVSIVWPSAGG [r13_1011_TrROS]”: the “folding stability dG unfold” value amounted to 1.49 ± 0.24 kcal/mol in series [1], 1.58 ± 0.15 kcal/mol in series [2] and 1.47 ± 0.16 kcal/mol in series [3].
The corresponding values for “SAGGPGYNINIDVKIYPDPNDNHFVIEVKITIMPMEPDPDDGGWKQRSRTVPQEILLPPGESAEDIFSAGGS [r8_323_TrROS]” are 2.62 ± 0.13 kcal/mol, 1.86 ± 0.1 kcal/mol and 3.19 ± 0.17 kcal/mol.
The like results for “SAGGPITITYDEETGVLTITITVPSLEEAEALIKALLPPGAEATRITVERNEDGSVTVTVEIRLPKGLSAGG [r13_338_TrROS_Hall]” were, in that order, 2.31 ± 0.062 kcal/mol, 1.49 ± 0.024 kcal/mol and 2.99 ± 0.08 kcal/mol.
Regarding “SAGGPKIKIEAFPDGTVKITIELPDGVTIVIELKFDPETGTVHAKITLLPKDKPVTFEFTFKIPPDASAGGS [r16_230_TrMRF]”, the “folding stability dG unfold” value turned out to be 4.29 ± 0.41 kcal/mol in series [1], 4.34 ± 0.11 kcal/mol in series [2] and 3.34 ± 0.35 kcal/mol in series [3].
The corresponding values for “SAGGPKKRKWVTFTIDIYIPTPPGQSIEDEARKLAENLGIEITDVEVEPHPNGMVKIDVTVTIWIPYSAGGS [r8_292_TrROS]” are 3.91 ± 0.13 kcal/mol, 4.37 ± 0.097 kcal/mol and 2.84 ± 0.062 kcal/mol.
